The series can be described thus: label from the status in PepcDB records.

Turning to “MLETDLEARMQILRESGFQESQGDDDTFAQRAEWFYQGRPLLLSLCLDLYNGYVTLLGRSSHQTRLKPTTSLPNQLLQDDDDCISDIDSVSEVSSEVESTLSFQQMKDPTAVSEKVDELVSQLVTASLDKEILKHELLHKDQQFHEASKTIELLKKFVMLLEMEKEVAVEENANLGYKLTSLLEENRELATEALFMKNEAVGLARCVLKMRDDHFHKVCILQNRIYSLQASRNSEPVSDKVSYGCFGLDKHKTKKKKENKTEEKKPGFKWLKKLNTINLFTKCSLNPSAAAPSCCTFDLPY”, the protein production result is reported as “failed”.
With “MLEVDVVRISVIVPIYNVKLYIERCVRSLMEQTLENIEFIFVNDCTPDDSMDILHYVLEEYPKRREQIKIIEHETNRGISAVRNTGLKNATGQYIIYCDSDDWVEKNMYEKLLVKALETSADIVGCDFFDDYVAHSTIRKQLFPQQSEKCVKKMLRGELHCGTWNKLVIKSLYERTKIDFPEGINMWEDVSTIIPLCFHATKIDYIPEALYHYIHHNVSSYTYSVTEKSLENLVASIQLLESFFLTNQCFKTFGEDLCFMKLTVKLNLLLGSKGELQKKRNMLYSSANRYIFSYSGMSWYWKIALWVASKKMLFCFNVMSCIERIIKKWKLEHHHHHH” the entry was “failed”; with “MLFNRHNKTTDSLQQTIAEQSRLLEAIDRSMAVIEFDLQGNVLRANANFLQTLGYREDQVTGQPHRLFCTPEYVRSSDYQQLWNRLRSGQFESGTFERVASNGQSLWLEASYNPIRDASGAVYKVVKYALDVTARVQEEVEARNKLDAIDRAMAVIEFNLDGSIIGANSNFLSRMGYSLAEIKGKHHRMFCKPELINSSAYQDFWNRLNRGEFFNGQFERIDRHGRTLWLEANYNPVYDASGRLCKVVKYAADVTQQVEKHEQDAQSASQAYHISVQTRKVAEQGTGVIQQAASEMRQIAENIEGSSSLIARLGERSEQITAIVNTIRAIADQTNLLALNAAIEAARAGDQGRGFAVVADEVRQLAARTSGSTAEISSMIDMIQNETQQAIKSMDGTRERAAKGVQLADQAGTVILQIRDGASEAVEAVSMFANERGAP”, “failed”; with “MLFSASLIHRIEFAPQRELYFLALYRILEAGLIAALVFSPVSLLVDPESDPHLGTVVAVGYLLLATILLVWGRNERWFTPLVFGSTVADILAATLAIHALPKASAGIAMMLLFNVAAAAILLRLRFSMILAWIAGVAMLVEYIWTVLSEGDSSRSLAELLMFFTSYTAVAYMCHQAAQRARYSQALAEKRRAQIVNLAEINELIIRRMRTGVLVVDAANRIGLSNETAAALLGYDRQLVESDYDLATVAPELIMRLKCWRIGRHYEDTPLRLAPDQPEVQPRFVSLLADSGLTLIFLDDVSVVSRRAESLTLLALGRFSASLAHEIRNPLAAIKHASQLLEESSNLDKGDQRLLDIILKQCQRTNGIVESVLGLARRERANPENLDLVGFVSRFVDEYRQTLSSEYDNLEIQTLHSTVQALVDPRHLYQILAVLTHNALRYGRFPDTPAQVRIEVVYTGGSVGINVLDQGPGIPDAAVLQLFQPFFTTSDHGTGLGLYIARELCNANQSNLEYVAIPGGGACFRITLPGPYALIPN”, “failed”.
The result for “MLGLFLIFWGLLLLLSLATFDLRDPSLNHVVSNPTEIRNGAGMFGSYLGGMLADAFGIAAFLWPVGFIGLGARYIIVSFDIAWWRWAGLLALSLCMVTAGAAWELSLGDVNAGGVLGDLLYRFSWKALSPRGSTLVWLFLCIIGLQLTFDISWTALFRRIVDKVRADLEAHPVSRPQLPELKLPRLGLPSGLHLPGRKGAEGNAPATLAVVDVTPDGSDSTNGAPSVVAREASTPRGMPVETDDFVLSEDRLQPPASELPFEVVLDADTDGVADLTADVESDISEGAGRPKAKMRRKSQLPPLDLLHSALNEDSRPDREVLEGKGLSLTNCLSDFGVQGELTRITPGPVVTMFEFRPAPGVKVSRIANLSDDLALALKAIAVRIQAPIPGTDTVGIEIPNETRETVCFKELLSSDTFKGASSLLTLAIGKDIAGRPTVADLSKMPHLLVAGATGAGKSVCLNSILLSILYKARPEDVKLLLVDPKRIELAVYADLPHLVHPVVTEMAHAKNALDWAVHEMDKRYEGMARLGVRNIAGYNQKLEDMGKERPADLADLEAMPYLVIIIDELADLMLTAAKEVETSIVRLAQLARAAGIHLILATQRPSVDVVTGLIKANFPCRISFQVTSKHDSRTILDTVGAEFLLGKGDMLFKPSGGKLQRLHGAFVSDDDVNGVVAFWKKQQPPSYKVDFAEWGNEGTLDGNGGSGGAGDLADDPVYAEAVEFVMGQGRASISLIQRRFRIGFNRAARYVEQMEQDGIIGPADGSKPRSVIRGKE” reads “failed”; that for “MLGLKTSIIGRRVIYFQEITSTNEFAKTSYLEEGTVIVADKQTMGHGRLNRKWESPEGGLWLSIVLSPKVPQKDLPKIVFLGAVGVVETLKEFSIDGRIKWPNDVLVNYKKIAGVLVEGKGDKIVLGIGLNVNNKVPNGATSMKLELGSEVPLLSVFRSLITNLDRLYLNFLKNPMDILNLVRDNMILGVRVKILGDGSFEGIAEDIDDFGRLIIRLDSGEVKKVIYGDVSLRFL”, “not failed”; that for “MLGLLRRLFDNNEREIARYYKQVVEPVNRLEAEVEKLPDLAAAYRELKEKHEKGASLDELLPMAFALTRESAKRYLGMRHFDVQLIGGAVLHEGKIAEMKTGEGKTLVATLAVALNALTGKGVHVVTVNDYLARRDAEWMGPVYRGLGLSVGVIQHASTPAERRKAYLADVTYVTNSELGFDYLRDNMAISPDQLVLRHDHPLHYAIIDEVDSILIDEARTPLIISGPAEKATDLYYKMAEIAKKLERGLPAEPGVRKEPTGDYTVEEKNRSVHLTLQGIAKAEKLLGIEGLFSPENMELAHMLIQAIRAKELYHRDRDYIVQDGQVIIVDEFTGRLMPGRRYGEGLHQAIEAKEGVRIERENQTLATITYQNFFRLYEKRAGMTGTAKTEEKEFQEIYGMDVVVVPTNRPVIRKDFPDVVYRTEKGKFYAVVEEIAEKYERGQPVLVGTISIEKSERLSQMLKEPRLYLPRLEMRLELFKKASQKQQGPEWERLRKLLERPAQLKDEDLAPFEGLIPPKGNLRTAWEGLKRAVHTLAVLRQGIPHQVLNAKHHAREAEIVAQAGRSKTVTIATNMAGRGTDIKLGGNPEYLAAALLEKEGFDRYEWKVELFIKKMVAGKEEEARALAQELGIREELLERIREIREECKQDEERVRALGGLFIIGTERHESRRIDNQLRGRAGRQGDPGGSRFYVSFDDDLMRLFASDRVIAMLDRMGFDDSEPIEHPMVTRSIERAQKRVEDRNFAIRKQLLQFDDVLSRQREVIYAQRRLILLGKDEEVKEAAIGMVEETVASLAENFLNPEVHPEDWDLEGLKATLLDTAPQLQDFPFAELRALKAEEAVERLVEAALKAYEAREAELSPPLMRAVERFVILNVVDNAWKEHLHNLDVLRQGIFLRGYGQKDPFQEYKIEATRLFNEMVAFIKSEVAKFLFRLKVEAEPVRPVREAPYVPVPEAKPEPSEVFGVERKRATPPPQPGLSRAERRRLMRQEKKRKK”, “not failed”.
The result for “MLGMGVFKQLIKGLYEWLLHSIDVATQHLVAIVLKISVVKYLIKEFHDRFIYFIDLIAQHFIIVALSSFLVLVFGVLIGVLVFYNSKARAFLLPVVNFLYTIPSLALFALFIPVIGVGLKNALLVLVLYGLLPIVHSTYNALKEVREEVIKAAIGLGCNPKELFFKVRFLLAIPQILAGLRIAVVMLVAMAGIGALIGAGGLGQAIFRGLNTQNTTLLVAGSLIIALFSVLADKFVSVFQHENALQRLFSQNATKKQKRRVYTNLAVFLFLLLASALWLIPRNAIEEKPLVVATKPSSEQYILGEILSLLLEKHHIPIKRAFGIGGGTMNIHPALIRGDFDLYVEYTGTAWVNTLKNPLTQKVDFETIKKRYEKEFNLLWVGLLGFNNTYSLAISKEDAQKYAIETFSDLAFHSPNFDFGAEFDFFEREDAFKGLVKAYRFHFRSLHEMDINLRYKSFESHKINALDVFTTDAQIKELDLKVLKDDKGFFPNYQAGIVIRKEIVKKYPEALEILEKLDSKISDEKMQDLNYQVEVLKKSPQIVAKDFLERLGL” reads “failed”; that for “MLGRAFQDLNRLRQISAAMARHGFGAYLERMRLRDVLGRDAPPPGQPLPPPDRTTAARFRTMLGELGPTFIKLGQLLSSRPDVLPSHWVDELEKLQDACPPVGVAEIREEIERGLGRPVEALFAALDPVPLASASIAQVHRATTHEGVQVVVKVQRPRIREQIESDLALLHDLAGLLEAVVEETGIYTPTGVMEEFDRTIHEELDFSNEARNATAMYETSAGREFLVIPRVHKALSCDTVLTLDYVEGVKVSDVTAEAGFDLEQVARNVIEASFRQLFEDGLFHGDPHPGNILVLPGNRIALLDFGLVGRLSRVQQEALVTLIVAVALRDPETVARVLNRIGVPDARAPITEFREDIRVILDRYLGLRLDEIRSATLLRDLLDLAIRHRIRIPKEYAVLAKASVTIEGIIRRLYPKLDILEVGLPYAKELLLSRFNPSDASGLVMRALLKLQGLAEDVPTQLSQILVDLEGGKFRVNVASDAIDRIGGHVRALGVLLFLGLLAAGLTVGGLVVLAGGEGLLGGLALGAAALLCAFAAAYHLATLRMRKISLRRWLKR”, “failed”.
Consider “MLGYVWLVEGRELMRWQELCTPAVICVGGVDPSAGAGITADVRTAENMGVRAYTVATAITFQGSGSYRGERWVDSADIIRQIESLSAEMEPAVAKIGLIRDSDTLSLVVDCLKKVFPSIRIVWDPVLRASADSSAGQADRFNLEDITALSRIDFITPNLPEARHLLGCEPDDETLLDFYRRSGVGLVLKGGHAGESVVTDRIVYDGRCEALRLLRGGTGKHGTGCAHSTAFAAALALEQEPFTAAGMAQLYVSRLRERASGLLAMHKDLPVDPVVRLMSEIDLQFITHRQPDLSELEEAEAVCRIGVRWVQLRMKEASDEEMLHTACAVKAVCRHHGALFVVNDRVEIARQVDADGVHLGKEDMAIVEARRILGSNKIIGRTCNTMEDVRRAYAEGADYVGIGPYRYTETKQRLAPVLGLEGYKAIAACMQAEGIRLPAFAIGGIEDADIPLIRDCGIGGIAVSGSLIRKIKKNLEHHHHHH”, for which the protein production result is given as “failed”.
The result for “MLHIDDAMIEDAVTPQAAQEVLHAAFLDFGRGSAAMQRRVRTEAGGVKLSTLGAVIPGQGVAGAKVYTTIKGQFQFVILLFSAADGRPLATCDAGTLTRKRTAACTVLAAGALARPRSSVLGLFGAGTQGAEHAAQLSARFALEAILVHDPYASPEILERIGRRCGVPARMAAPADIAAQADIVVTATRSTTPLFAGQALRAGAFVGAIGSSLPHTRELDDEALRRARAVVVEWREQTLSEAGDLVLAAPDTGLDAKVVELADVLAGRAAARQADEDIVIYKSVGVGLEDVALAGYAYRRLAAQRGWPAP” reads “not failed”.
The result for “MLHRSPKRMVAVALFLACLVISLTTVTFAAPAPTIQIQNPMVEGIRSPLRIASDSLGGVYVSDSLAKGVLKYDVVGHLAQTIKTAAPPQGIAVASDGTLLVGQGTYVSMYSAAGQEIGKLGAGEGQFKMADGITVDDDGSIYVVDCLDNSVQIFNAAGSFVKKFGSFGTTPGKFSTPSGIAFEKVSRQVAVVDTRTGRIQFFDKTGAYVRTIGSFGTNPLRFTAPQGVSFEYSSGSTPVLKRMYVVDTFQSTVQAIDPAATPVFLSYIGTYGSGNGKLMVPSDVLFDQATGRLLVVNGFGNVSVYGVDGGGVSVAVDLIPPALTINPVVSPFMSPTLDLSGTVEAGARLTIATGGTTTVGAISFPTPTTWQTTLSGFAPGGTTITVTARDAANNATNQSVTVSYLQSGPMLTMEPLPTFTADTFQQLSGLVDPGSVVTVTNATTGASAKALVFGNTWSYRLPLAAGANSITVKAEKSMSAATTVSATTTLDAIPPALAVSALADGSYTSGQVQNIQVMVTDANLDVVTLNGQQIVPVNGSYSTAITLKPGPNVIMAAAVDLAGNVTTDIRTIIYDGTRPVVSFTTPAEGTYVTSDHVSVSGIVDETAVVTVAGLPARMDGTSWSADVPLVPGMNTIDVVAVDLAGNVGSVKRTVTYDTEAPALVVSAPSQDVVTNRPTFGFAGNVTDPSPVTLTAEVDGAPVAVTVTDGSFTLAVTFANEGSHAVTFTATDAAGNASRVTRTVIYDGTAPALTLDPVNTPYPSVLTGTVEAGAAVTVEDRNGSAGTVTVSGEKWNAALEVGGYDAASLAVRATDVAGNSTVRSLVVNVPDGDLNGDGAVTVHDVILALRMFTRQMVPTANQLAHGDIGPLYQGKAKPNGVVDLVDAILIMRKALGMPSW” reads “failed”.
